Assay results published in patent US20170165337A1 (IMMATICS BIOTECHNOLOGIES, published 2017).
Each block holds one binder with its values, some of them ahead of it.

Target: T1, HLA-A*02:01 (human)
T1 construct: MHC class I monomer of the UV-ligand exchange assay; also called peptide-receptive MHC molecules; MHC class I
Experiment: UV peptide-exchange ELISA
Method in brief: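 Peptide-MHC complexes formed by UV-mediated exchange of a UV-cleavable peptide for the test peptide; exchange yield quantified by β2m ELISA. Diluted 100-fold, captured on streptavidin-coated plates 1 h at 37 °C, detected with HRP anti-β2m and TMB at 450 nm against refolded HLA-A*02:01 monomer standards (15-500 ng/ml).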

peptide exchange yield: 20 to 50%
B3: ILGYMAHEHKV (peptide)
peptide: ILGYMAHEHKV

peptide exchange yield: 10 to 20%
B5: SLIKYFLFV (peptide)
peptide: SLIKYFLFV

peptide exchange yield: 50 to 75%
B7: GLHQREIFL (peptide)
peptide: GLHQREIFL

peptide exchange yield: 50 to 75%
B11: GLLEVISALQL (peptide)
peptide: GLLEVISALQL

peptide exchange yield: 10 to 20%
B15: GLDQQFAGLDL (peptide)
peptide: GLDQQFAGLDL

peptide exchange yield: 50 to 75%
B17: ILDFGTFQL (peptide)
peptide: ILDFGTFQL

peptide exchange yield: 50 to 75%
B18: WLVGQEFEL (peptide)
peptide: WLVGQEFEL

peptide exchange yield: ≥ 75%
B19: ILVVIEPLL (peptide)
peptide: ILVVIEPLL

peptide exchange yield: 50 to 75%
B22: ILNNEVFAI (peptide)
peptide: ILNNEVFAI

peptide exchange yield: 50 to 75%
B23: GIIDGSPRL (peptide)
peptide: GIIDGSPRL

peptide exchange yield: 20 to 50%
B29: GVMDVNTAL (peptide)
peptide: GVMDVNTAL

peptide exchange yield: 50 to 75%
B30: GLPSFLTEV (peptide)
peptide: GLPSFLTEV

peptide exchange yield: 50 to 75%
B31: ALAASALPALV (peptide)
peptide: ALAASALPALV

peptide exchange yield: 50 to 75%
B34: GQGEVLVYV (peptide)
peptide: GQGEVLVYV

peptide exchange yield: 50 to 75%
B35: YIQQGIFSV (peptide)
peptide: YIQQGIFSV

peptide exchange yield: 20 to 50%
B53: FLSDQPEPYL (peptide)
peptide: FLSDQPEPYL

peptide exchange yield: 50 to 75%
B54: ILEPLNPLL (peptide)
peptide: ILEPLNPLL

peptide exchange yield: 50 to 75%
B55: FLFEPVVKAFL (peptide)
peptide: FLFEPVVKAFL

peptide exchange yield: 50 to 75%
B59: KLLESVASA (peptide)
peptide: KLLESVASA

More lines, now with the values behind:

B1: SLAGGLDDMKA (peptide)
peptide: SLAGGLDDMKA
peptide exchange yield: 50 to 75%

B2: GLQAKIQEA (peptide)
peptide: GLQAKIQEA
peptide exchange yield: 50 to 75%

B4: SLAHVAGCEL (peptide)
peptide: SLAHVAGCEL
peptide exchange yield: 50 to 75%

B6: ALCDTLITV (peptide)
peptide: ALCDTLITV
peptide exchange yield: 50 to 75%

B8: ILFPLRFTL (peptide)
peptide: ILFPLRFTL
peptide exchange yield: 50 to 75%

B9: FVYFIVREV (peptide)
peptide: FVYFIVREV
peptide exchange yield: 50 to 75%

B10: GLSIFAQDLRL (peptide)
peptide: GLSIFAQDLRL
peptide exchange yield: 20 to 50%

B12: ALDTLEDDMTI (peptide)
peptide: ALDTLEDDMTI
peptide exchange yield: 50 to 75%

B13: FVLDHEDGLNL (peptide)
peptide: FVLDHEDGLNL
peptide exchange yield: 50 to 75%

B14: VIADLGLIRV (peptide)
peptide: VIADLGLIRV
peptide exchange yield: 50 to 75%

B16: ILIDKTSFV (peptide)
peptide: ILIDKTSFV
peptide exchange yield: 50 to 75%

B20: HLYPGAVTI (peptide)
peptide: HLYPGAVTI
peptide exchange yield: 50 to 75%

B21: ALLERTGYTL (peptide)
peptide: ALLERTGYTL
peptide exchange yield: 50 to 75%

B24: FVPDTPVGV (peptide)
peptide: FVPDTPVGV
peptide exchange yield: 50 to 75%

B25: GLDDVTVEV (peptide)
peptide: GLDDVTVEV
peptide exchange yield: 20 to 50%

B26: ILDEIGADVQA (peptide)
peptide: ILDEIGADVQA
peptide exchange yield: 50 to 75%

B27: ILIFHSVAL (peptide)
peptide: ILIFHSVAL
peptide exchange yield: 50 to 75%

B28: GLSEISLRL (peptide)
peptide: GLSEISLRL
peptide exchange yield: ≥ 75%

B32: FLVEAPHDWDL (peptide)
peptide: FLVEAPHDWDL
peptide exchange yield: ≥ 75%

B33: FMEPTLLML (peptide)
peptide: FMEPTLLML
peptide exchange yield: 50 to 75%

B36: GLLDAGKMYV (peptide)
peptide: GLLDAGKMYV
peptide exchange yield: 50 to 75%

B37: FVFEAPYTL (peptide)
peptide: FVFEAPYTL
peptide exchange yield: 50 to 75%

B38: GLDDMKANL (peptide)
peptide: GLDDMKANL
peptide exchange yield: 20 to 50%

B39: FLVETGFLHV (peptide)
peptide: FLVETGFLHV
peptide exchange yield: ≥ 75%

B40: FLSPQQPPLL (peptide)
peptide: FLSPQQPPLL
peptide exchange yield: 50 to 75%

B41: ILFNTQINI (peptide)
peptide: ILFNTQINI
peptide exchange yield: 50 to 75%

B42: GLKHDIARV (peptide)
peptide: GLKHDIARV
peptide exchange yield: 50 to 75%

B43: HQIEAVDGEEL (peptide)
peptide: HQIEAVDGEEL
peptide exchange yield: 20 to 50%

B44: VLIEDELEEL (peptide)
peptide: VLIEDELEEL
peptide exchange yield: 20 to 50%

B45: HLMLHTAAL (peptide)
peptide: HLMLHTAAL
peptide exchange yield: ≥ 75%

B46: ALIFKIASA (peptide)
peptide: ALIFKIASA
peptide exchange yield: 50 to 75%

B47: GLLRIIPYL (peptide)
peptide: GLLRIIPYL
peptide exchange yield: 50 to 75%

B48: GLQSGVDIGV (peptide)
peptide: GLQSGVDIGV
peptide exchange yield: 50 to 75%

B49: FLYPFPLALF (peptide)
peptide: FLYPFPLALF
peptide exchange yield: 50 to 75%

B50: FLWQHVELVL (peptide)
peptide: FLWQHVELVL
peptide exchange yield: 50 to 75%

B51: FLTDLFAQL (peptide)
peptide: FLTDLFAQL
peptide exchange yield: ≥ 75%

B52: FVFGDENGTVSL (peptide)
peptide: FVFGDENGTVSL
peptide exchange yield: 50 to 75%

B56: GLLRASFLL (peptide)
peptide: GLLRASFLL
peptide exchange yield: 20 to 50%

B57: ILDLNTYNV (peptide)
peptide: ILDLNTYNV
peptide exchange yield: 50 to 75%

B58: LLFATQITL (peptide)
peptide: LLFATQITL
peptide exchange yield: 20 to 50%
